Test results taken from article PMC4267654.
Where two headings read alike, the source gives them in different places.

Columns and labels:
[1] = biological target: T1, R.NgoAVII-B3 (C-terminal B3-like DNA-binding domain) (UniProt Q5F9M9 179-345); experiment: X-ray crystallography
T1 sequence: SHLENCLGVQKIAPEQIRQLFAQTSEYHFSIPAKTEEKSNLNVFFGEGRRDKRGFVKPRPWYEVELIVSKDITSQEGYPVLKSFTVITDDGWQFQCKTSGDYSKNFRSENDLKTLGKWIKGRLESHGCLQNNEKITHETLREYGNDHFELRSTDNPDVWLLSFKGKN

[2] = biological target: T1, R.NgoAVII-B3 (C-terminal B3-like …); experiment: X-ray crystallography; remark: listed apart in the source

Row | Binder | binding result [1] | binding result [2]
1 | DNA-1 cognate oligoduplex (dsDNA) DNA 1: GGGATTGCCGCTTAGG DNA 2: CCCTAAGCGGCAATCC | binds | 
2 | DNA-2 oligoduplex (DNA-1 without terminal C1 and G32) (dsDNA) DNA 1: GGGATTGCCGCTTAG DNA 2: CCTAAGCGGCAATCC |  | binds
